Measurements as given in paper PMC3618186 (2013).

Target: the molecule itself
Assay: sedimentation equilibrium AUC

B1: p150Glued CC1 CC1 (protein)
chain: SKEEEGLRAQVRDLEEKLETLRLKRAEDKAKLKELEKHKIQLEQVQEWKSKMQEQQADLQRRLKEARKEAKEALEAKERYMEEMADTADAIEMATLDKEMAEERAESLQQEVEALKERVDELTTDLEILKAEIEEKGSDGAASSYQLKQLEEQNARLKDALVRMRDLSSSEKQEHVKLQKLMEKKNQELEVVRQQRERLQEELSQAESTIDELKEQVDAALGAEEMVEMLTDRNLNLEEKVRELRETVGDLEAMNEMNDELQENARETELELREQLDMAGARVREAQKRVEAAQETVADYQQTIKKYRQLTAHLQDVNRELTNQQEASVERQQQ
- Kd: < 1 nM
